We go through 27 sequences from the supplement of paper PMC9732359.

± gives the uncertainty stated by the source.

This data set is described as follows: protein stability index of a GFP-peptide fusion (yeast GPS) (PSI 1-4); higher = more stable; sorted into four equal gates, so the index is relative within each strain. Put shortly:
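Plasmids isolated from each sorting gate were PCR-amplified and Illumina-sequenced, and barcodes assigned the reads to strains. The gates, four of equal size, were set by GFP/Cherry fluorescence ratio on mid-log cultures in leucine-free medium. These cultures were yeast carrying a pooled library of tiled 17-residue yeast protein peptides fused downstream of GFP on a plasmid that also expresses Cherry. The protein stability index is the sum of every gate's read frequency times its gate number.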

LRKQYSAIDEEIEELID [SMC3]: the protein stability index (pdr5∆) came out at 2.98 ± 0.2 and the protein stability index (ubr1∆) came to 3.26 ± 0.2.
For the sequence LRLDGHTKSDERSELLR [SNF2], the protein stability index is, setting by setting: (doa10∆) 3.24 ± 0.081; (pdr5∆) 3.18 ± 0.084; (san1∆) 3.38 ± 0.079; (ubr1∆) 3.33 ± 0.078.
On the same counts, the results for LRLGRGINPNTFRIFHN [YDL088C/ASM4] are 2.39 ± 0.062, 1.88 ± 0.071, 1.86 ± 0.11 and 1.65 ± 0.038.
On the same counts, the results for LRLPFSAAMSIDKLSDV [PRP8] are 2.43 ± 0.053, 2.42 ± 0.038, 2.24 ± 0.048 and 2.3 ± 0.033.
On the same counts, the results for LRLRISRKRNEEEDAKN [RPL31A] are 1.72 ± 0.17, 2.39 ± 0.17, 3.35 ± 0.16 and 2.32 ± 0.14.
For LRLTEQKSPKIRDPLTQ [RPC82], the protein stability index turned out to be 1.6 ± 0.071 (doa10∆), 1.66 ± 0.041 (pdr5∆), 1.91 ± 0.12 (san1∆) and 1.92 ± 0.045 (ubr1∆).
On the same counts, the results for LRNKIAGYTTHLMKRIQ [RPS17A] are 2.44 ± 0.12, 3.19 ± 0.13, 2.31 ± 0.12 and 2.99 ± 0.076.
On the same counts, the results for LRSRLQQQQQQQQQTSP [SNF5] are 2.58 ± 0.057, 2.95 ± 0.058, 2.76 ± 0.05 and 2.78 ± 0.049.
On the same counts, the results for LRTVKEVQFGLFSPEEV [RPO21] are 2.76 ± 0.082, 2.98 ± 0.081, 3.02 ± 0.046 and 2.95 ± 0.043.
As to LRVDEVQGKNLLTNFHG [RPS1A], the protein stability index is, setting by setting: (doa10∆) 3.29 ± 0.067; (pdr5∆) 3.42 ± 0.055; (san1∆) 3.3 ± 0.047; (ubr1∆) 3.26 ± 0.041.
On the same counts, the results for LRYYKNIWLNNKIINWE [NUT1] are 3.56 ± 0.18, 2.67 ± 0.087, 2.2 ± 0.22 and 3.39 ± 0.16.
On the same counts, the results for LSDNAKTLHSQMMSKGI [RPC34] are 3.19 ± 0.18, 3.32 ± 0.098, 3.26 ± 0.071 and 3.11 ± 0.056.
Take LSDVAFYVQDVYKDNLS [RPO31]: the protein stability index was found to be 1.8 ± 0.12 (doa10∆), 1.7 ± 0.12 (pdr5∆) and 1.22 ± 0.14 (ubr1∆).
LSGGGHDNHGNKLGNKR [CDC53] displayed a protein stability index (ubr1∆) of 3.65 ± 0.23.
As for LSGLAQRKTNGASNGDD [BRN1], the protein stability index stood at 3.15 ± 0.17 (doa10∆), 3.29 ± 0.17 (pdr5∆), 3.05 ± 0.077 (san1∆) and 3.6 ± 0.15 (ubr1∆).
Turning to LSINEKDFVTMAIEIIN [YCG1], the protein stability index was 2.44 ± 0.082 (doa10∆), 2.38 ± 0.077 (pdr5∆), 2.14 ± 0.093 (san1∆) and 2.15 ± 0.053 (ubr1∆).
On the same counts, the results for LSKMRDSVLQLASFEKT [RPO31] are 3.12 ± 0.13, 2.97 ± 0.079, 2.91 ± 0.11 and 3.01 ± 0.11.
LSLTAVPSFLRPDITMY [GRR1]: the protein stability index by setting is: (doa10∆) 2.17 ± 0.043; (pdr5∆) 2.34 ± 0.045; (san1∆) 2.18 ± 0.051; (ubr1∆) 2.33 ± 0.043.
On the same counts, the results for LSNPSNQNICTSVTRRS [GRR1] are 2.42 ± 0.083, 2.49 ± 0.052, 2.62 ± 0.055 and 2.53 ± 0.039.
On the same counts, the results for LSRLSTASKIIVIDVDY [MED1] are 2.07 ± 0.058, 2.3 ± 0.067, 2.2 ± 0.051 and 2.41 ± 0.074.
Regarding LSRYVKWPEYVRVQRQK [RPL8A], the protein stability index (pdr5∆) was determined as 2.67 ± 0.13 and the protein stability index (ubr1∆) came to 3.02 ± 0.22.
For LSSYQKKIIKCDEHMGL [PRE5], the protein stability index runs as follows: (doa10∆) 2.19 ± 0.1; (pdr5∆) 2.37 ± 0.13; (san1∆) 2.19 ± 0.21; (ubr1∆) 2.71 ± 0.22.
Regarding LSTLPAGKSLVSKSEPK [QCR2], the protein stability index stood at 2.95 ± 0.17 (doa10∆), 3.27 ± 0.1 (pdr5∆), 2.68 ± 0.11 (san1∆) and 3.44 ± 0.14 (ubr1∆).
For LTADARSMIEHARTAAV [PUP2], the protein stability index by setting is: (doa10∆) 2.11 ± 0.13; (pdr5∆) 2.87 ± 0.22; (san1∆) 2.38 ± 0.16; (ubr1∆) 2.71 ± 0.084.
On the same counts, the results for LTEAVEDGPRPFKVFLD [RPL5] are 3.03 ± 0.071, 3.11 ± 0.061, 3.02 ± 0.052 and 3.23 ± 0.036.
Turning to LTEEELKTRYVGRQDPK [RPN11], the protein stability index reads like this: (pdr5∆) 3.36 ± 0.13; (san1∆) 3.26 ± 0.14; (ubr1∆) 3.56 ± 0.21.
Consider LTFILGQLLSVKFLVYQ [YML031W/NDC1], for which the protein stability index is, setting by setting: (doa10∆) 1.53 ± 0.081; (pdr5∆) 2.14 ± 0.12; (san1∆) 1.51 ± 0.19; (ubr1∆) 1.69 ± 0.097.
